Where two headings read alike, the source gives them in different places.
Assays:
patients with T2DM [1] = experiment: Phase IIb and III clinical trials of YN-011 in combination with metformin in T2DM; type: in vivo; conditions: 3 mg YN-011 in combination with metformin, 24 weeks
Procedure: The Phase IIb and III clinical trials were multicenter, randomized, double-blind, placebo-controlled studies evaluating the efficacy and safety of YN-011 in patients with T2DM who had inadequate glycemic control on metformin therapy. The Phase IIb trial aimed to explore dose response and evaluate safety (divided into three groups: YN-011 1 mg+metformin, YN-011 3 mg+metformin, and placebo+metformin), to determine the Recommended Phase 3 Dose (RP3D) for the Phase III trial, which aimed at efficacy confirmation . . .
The inclusion criteria for subjects in the Phase IIb and III studies of YN-011 in combination with metformin were primarily the same as those in Implementation Example 10, except for the following point: • Diagnosed with type 2 diabetes for at least 8 weeks (WHO 2000), and met one of the following conditions: • a) Received monotherapy with metformin for >8 weeks with a dose of ≥1500 mg/day or maximum tolerated dose (<1500 mg/day but ≥1000 mg/day) (eligible subjects could directly enter the run-in period). • b) Received monotherapy with metformin for <8 weeks with a dose of ≥1500 mg/day or maximum tolerated dose (<1500 mg/day but ≥1000 mg/day) (eligible subjects needed to enter the metformin dose stabilization period). • c) Received monotherapy with metformin at a dose <1500 mg/day and had not reached the maximum tolerated dose (eligible subjects needed to enter the metformin dose titration period and dose stabilization period).
Please refer to the exclusion criteria in Implementation Example 10 for the primary exclusion criteria for subjects in the Phase IIb and III studies of YN-011 in combination with metformin.
Primary efficacy endpoints included the comparison of YN-011 in combination with metformin versus placebo in combination with metformin in terms of the change in HbA1c levels from baseline after 12 weeks (Phase IIb) or 24 weeks (Phase III) of double-blind administration in patients with T2DM who had inadequate glycemic control on metformin therapy. Please refer to Implementation Example 10 for the secondary efficacy endpoints and safety assessments.

obese rhesus monkeys = experiment: Obese rhesus monkeys, body weight; type: in vivo; conditions: for body weight decrease compared to baseline: at D28
Excerpt: The obese rhesus monkeys used in this study were sourced from Sichuan Primate Biotechnology Co., Ltd. Fifteen male obese rhesus monkeys, aged 8-21 years (equivalent to 30-60 years in humans), with a body weight of 9.25-15.70 kg, fasting plasma glucose (FPG) levels between 5.50-8.58 mmol/L, and HbA1c levels between 4.5-5.0%, were selected. These monkeys were within the first year of disease onset and had not received any medication. Their liver and kidney functions were normal. The animals were stratified based on FPG levels and randomly assigned to different groups. The selected animals underwent an intravenous glucose tolerance test (IVGTT) to measure blood glucose and insulin levels before the administration of the test compounds. The experimental groups included a placebo group and two YN-011 treatment groups: YN-011 50 μg/kg and YN-011 25 μg/kg, with 5 animals in each group. The treatments were administered via subcutaneous injections (SC) once a week for 4 consecutive weeks, specifically on Day 0 (DO), Day 7 (D7), Day 14 (D14), and Day 21 (D21).

patients with T2DM [2] = conditions: 1 mg YN-011, 24 weeks
[3] = human, in vivo
[4] = Determination of oxidation levels by LC-MS/MS; type: physicochemical
Procedure: Following the protein oxidation measurement method described in Example 2 or by referring to Bettinger et al., the oxidation levels were determined. It was observed that the GLP-1 fusion protein YN-011 of the present invention was not oxidized at position W31, whereas the oxidation level of […] at the same position exceeded 5%. The oxidation occurred at the location indicated by the rectangular box in the structure of W31.

B1: YN-011: GLP-1 fusion protein of SEQ ID NO: 7: GLP-1 (A8G, G22E, R36G), linker peptide and IgG2/Fc domain (C222S, A330S, P331S) (protein)
chain: HGEGTFTSDVSSYLEEQAAKEFIAWLVKGGGSSGAPPPSGGGGSERKSCVECPPCPAPPVAGPSVFLFPPKPKDTLMISRTPEVTCVVVDVSHEDPEVQFNWYVDGVEVHNAKTKPREEQFNSTFRVVSVLTVVHQDWLNGKEYKCKVSNKGLPSSIEKTISKTKGQPREPQVYTLPPSREEMTKNQVSLTCLVKGFYPSDIAVEWESNGQPENNYKTTPPMLDSDGSFFLYSKLTVDKSRWQQGNVFSCSVMHEALHNHYTQKSLSLSPG
In the case of B1, the “incidence of hypoglycemia (<3.9 mmol/L)” value (patients with T2DM [1]) is reported as 1.8%, the incidence of nausea (patients with T2DM [1]) is reported as 7.0% and the “reduction in FPG levels” value (patients with T2DM [1]) is reported as 2.42%. The “reduction in HbA1c levels” value (patients with T2DM [1]) was 1.8%, the “BW” value (obese rhesus monkeys; 25 μg/kg SC once a week, D 1 baseline value (before administration)) was 12.72 kg and the “BW” value (obese rhesus monkeys; 25 μg/kg SC once a week, D 7) was 12.39 kg. For the same molecule, the “BW” value (obese rhesus monkeys; 25 μg/kg SC once a week, D 14) was 12.16 kg, the “BW” value (obese rhesus monkeys; 25 μg/kg SC once a week, D 21) was 12.06 kg and the “BW” value (obese rhesus monkeys; 25 μg/kg SC once a week, D 28) was 11.84 kg. The “BW” value (obese rhesus monkeys; 25 μg/kg SC once a week, D 35) was 12.05 kg, the “BW” value (obese rhesus monkeys; 25 μg/kg SC once a week, D 42) was 12.03 kg and the “BW compared to the placebo group” value (obese rhesus monkeys; 25 μg/kg, D14 and D21 (P<0.05)) was “significantly decreased”. For the same molecule, the “body weight decrease compared to baseline” value (obese rhesus monkeys; 25 μg/kg) was 6.17%, the “BW” value (obese rhesus monkeys; 50 μg/kg SC once a week, D 1 baseline value (before administration)) was 10.29 kg and the “BW” value (obese rhesus monkeys; 50 μg/kg SC once a week, D 7) was 9.85 kg. The “BW” value (obese rhesus monkeys; 50 μg/kg SC once a week, D 14) was 9.64 kg, the “BW” value (obese rhesus monkeys; 50 μg/kg SC once a week, D 21) was 9.63 kg and the “BW” value (obese rhesus monkeys; 50 μg/kg SC once a week, D 28) was 9.52 kg. For the same molecule, the “BW” value (obese rhesus monkeys; 50 μg/kg SC once a week, D 35) was 9.79 kg, the “BW” value (obese rhesus monkeys; 50 μg/kg SC once a week, D 42) was 9.81 kg and the “body weight decrease compared to baseline” value (obese rhesus monkeys; 50 μg/kg) was 7.32%. For the same molecule, the “BW compared to the placebo group” value (obese rhesus monkeys; 50 μg/kg, from D7 to D28 (P<0.05 or P<0.01)) was “significantly or extremely significantly decreased”, the “reduction in HbA1c levels” value (patients with T2DM [2]) was 1.73% and the “half-life compared with SUPA-1, Dulaglutide and Semaglutide” value [3] was “significantly longer half-life than Dulaglutide and Semaglutide”. The “plasma concentration steady state” value [3] was “reached a steady state after the fourth dose”, the “median Tmax” value ([3]; sc) was 60 to 84 h and the “oxidation level at position W31” value [4] was “not oxidized”.
